The target of test [1] is T1, IL-18 receptor (IL-18Rα / IL-18Rβ heterodimer) on HEK-Blue IL-18 reporter cells (UniProt Q13478 19-541; O95256 20-599, limits assumed).
T1 sequence (looked up) 1: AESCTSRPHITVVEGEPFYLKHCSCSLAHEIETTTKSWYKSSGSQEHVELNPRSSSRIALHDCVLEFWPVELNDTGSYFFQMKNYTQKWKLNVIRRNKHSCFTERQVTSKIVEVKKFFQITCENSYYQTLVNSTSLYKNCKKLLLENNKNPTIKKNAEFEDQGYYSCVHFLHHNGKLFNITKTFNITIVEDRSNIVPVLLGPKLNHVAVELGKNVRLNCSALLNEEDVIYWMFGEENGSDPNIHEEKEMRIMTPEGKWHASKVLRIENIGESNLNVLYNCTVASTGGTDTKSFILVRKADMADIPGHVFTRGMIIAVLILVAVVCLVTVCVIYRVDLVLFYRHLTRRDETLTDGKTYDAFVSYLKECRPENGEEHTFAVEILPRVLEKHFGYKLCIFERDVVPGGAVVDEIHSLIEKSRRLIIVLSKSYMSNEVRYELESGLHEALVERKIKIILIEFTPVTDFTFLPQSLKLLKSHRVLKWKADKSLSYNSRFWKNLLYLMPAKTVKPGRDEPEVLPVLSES
T1 sequence (looked up) 2: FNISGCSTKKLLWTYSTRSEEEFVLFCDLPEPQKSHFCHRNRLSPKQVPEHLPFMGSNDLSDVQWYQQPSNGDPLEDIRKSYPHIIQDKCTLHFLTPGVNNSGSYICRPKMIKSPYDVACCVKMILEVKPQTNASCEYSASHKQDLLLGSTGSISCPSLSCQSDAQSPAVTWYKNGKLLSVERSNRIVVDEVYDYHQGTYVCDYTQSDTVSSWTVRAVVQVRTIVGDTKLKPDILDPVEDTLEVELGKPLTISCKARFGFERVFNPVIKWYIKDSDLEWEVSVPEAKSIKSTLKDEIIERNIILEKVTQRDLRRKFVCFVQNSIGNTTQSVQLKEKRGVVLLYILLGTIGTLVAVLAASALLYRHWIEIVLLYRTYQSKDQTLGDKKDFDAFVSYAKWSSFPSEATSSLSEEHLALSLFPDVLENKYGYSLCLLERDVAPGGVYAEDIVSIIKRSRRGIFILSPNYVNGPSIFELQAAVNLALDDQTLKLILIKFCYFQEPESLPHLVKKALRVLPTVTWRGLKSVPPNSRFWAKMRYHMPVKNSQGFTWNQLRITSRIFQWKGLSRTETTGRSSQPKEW
Nature of the test: cell-based or functional assay.

In test [2] the target is T2, Human IL-18BP (amino acids 31-194), biotinylated (human, UniProt O95998 31-194, biotin on the AviTag (BirA ligase) where used biotinylated).
T2 construct: Soluble decoy receptor; also called hIL-18BP; recombinant IL-18BP
T2 sequence: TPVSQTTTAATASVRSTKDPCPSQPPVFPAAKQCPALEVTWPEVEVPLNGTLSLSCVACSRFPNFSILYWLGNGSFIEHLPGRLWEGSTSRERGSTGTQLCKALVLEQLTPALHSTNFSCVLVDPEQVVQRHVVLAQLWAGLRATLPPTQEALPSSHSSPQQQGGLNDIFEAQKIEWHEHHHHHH
Briefly: on-yeast binding isotherms; 20 µM used for NBD; printed without '>'; yeast-displayed variant; ratio computed with 20 µM put in for NBD.

In test [3] the target is T3, Human IL-18Rα ectodomain (amino acids 19-329), biotinylated (human, UniProt Q13478 19-329, biotin on the AviTag (BirA ligase)).
T3 construct: range 19-329; Secreted from insect cells (gp67 signal peptide removed); also called hIL-18Rα; hIL18Rα
T3 sequence: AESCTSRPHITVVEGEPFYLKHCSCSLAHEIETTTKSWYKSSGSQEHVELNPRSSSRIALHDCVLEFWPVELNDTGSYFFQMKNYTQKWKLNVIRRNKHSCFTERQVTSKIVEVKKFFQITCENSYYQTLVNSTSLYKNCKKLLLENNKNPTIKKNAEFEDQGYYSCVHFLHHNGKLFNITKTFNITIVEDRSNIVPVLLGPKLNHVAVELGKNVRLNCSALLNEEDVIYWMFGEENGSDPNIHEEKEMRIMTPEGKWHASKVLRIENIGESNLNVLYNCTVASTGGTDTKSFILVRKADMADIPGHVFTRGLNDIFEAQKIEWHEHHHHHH
Nature of the test: SPR, apparent KD, first value of the cell; Exp 2. The method, then: (§1) Surface Plasmon Resonance (SPR) was used to perform biophysical affinity measurements of second generation DR-IL-18 variants (binding to IL-18R vs IL-18BP). Experiments were conducted using a Biacore T100 instrument and carried out at 25° C. Biotinylated IL-18Rα or IL-18BP were immobilized onto a Biacore biotin capture chip (Series S CAP sensor chip, GE Healthcare) to yield an Rmax of ˜50 RU (IL-18Rα) or ˜10 RU (IL-18BP). Measurements were made with serial dilutions of the IL-18 variants in HEPES buffered Saline-P+ buffer (10 mM HEPES pH 7.4, 150 mM NaCl, 0.005% surfactant P20). The surface was regenerated by three 60-sec injections of regeneration buffer (3/4 (v/v) 8M guanidine hydrochloride with ¼ (v/v) 1M sodium hydroxide). Experiments were performed in multiple channels simultaneously for increased observations. All data were analyzed with the Biacore T100 evaluation software version 2.0 with a 1:1 Langmuir binding model.

Test [4] addresses T3, Human IL-18Rα ectodomain (amino acids …). Briefly: SPR (Biacore T100), hIL-18Rα as surface ligand, 1:1 Langmuir. The method, then: as §1
For orientation: Surface plasmon resonance follows binding to a sensor surface in real time, without labels.

The target is the same in test [5]. Nature of the test: SPR, apparent KD, second value of the cell; Exp 1. The method, then:
as §1

The target is the same in test [6]. Briefly: SPR (Biacore T100), hIL-18Rα as surface ligand; Exp 2. How it is done:
as §1

For test [7] the target is unchanged. Briefly: SPR (Biacore T100), hIL-18Rα as surface ligand; Exp 1. How it is done: as §1
For test [8] the target is unchanged. Briefly: SPR.
Test [9] has the same target. Nature of the test: on-yeast binding isotherm (flow cytometry), drawn summary table, IL18Rα (KD). The method, then:
Individual colonies of IL-18 yeast were grown overnight at 30° C. in SDCAA liquid media and induced in SGCAA liquid media for 1 day at 20° C. IL-18 display levels on yeast were verified by flow cytometry using an anti-cMyc tag antibody (anti-myc-PE; Cell Signaling Technologies). Receptor staining with biotinylated IL-18Rα (with or without IL-18R β) or biotinylated IL-18BP was performed in PBS supplemented with 0.5% BSA and 2 mM EDTA (PBE) on ice. All analysis was performed on a Sony SA3800 flow cytometer.
On the technique in general: Flow cytometry measures light scatter and fluorescence of single cells or particles in a stream.

Test [10] addresses T2, Human IL-18BP (amino acids 31-194), …. Nature of the test: SPR; KD(IL-18BP)/KD(IL-18Rα) normalized to WT IL-18; SPR; ratio from the bound KD BP >10,000 nM. How it is done:
as §1

Test [11] shares this target. Briefly: on-yeast binding isotherms; KD ratio relative to WT IL-18; yeast-displayed variant; ratio normalized to WT, from the 20 µM placeholder.
Test [12] shares this target. Nature of the test: SPR; KD(IL-18BP)/KD(IL-18Rα) normalized to WT IL-18; SPR; normalized ratio, a bound from KD BP >10,000 nM. The method, then:
as §1

Test [13] concerns the target T3, Human IL-18Rα ectodomain (amino acids …). Briefly: SPR, apparent KD, second value of the cell. The method, then: as §1
Test [14] shares this target. Briefly: SPR, apparent KD, first value of the cell. How it is done:
as §1

Substitutions are numbered along the chain they refer to. Bounds are passed on as bounds.

B1: SEQ ID NO: 89 (second generation human DR-IL-18 variant 6-12) (ligand)
chain: YFGKLESKLSVIRNLNDQVLFIDQGNRPLFEDMTDSDCRDNAPRTIFIISKYSDSLARGLAVTISVKCEKISTLSCENKIISFKEMNPPDNIKDTKSDIIFFQRDVPGHSRKMQFESSSYEGYFLACEKERDLFKLILKKEDELGDRSIMFTVQNED
notes: Engineered variant; recombinant soluble analyte in SPR and cell assays
One may read the koff as a measure of how fast the partners let go of each other. What is called kon is the second-order rate constant of association. The low end stands for slow association, the high end for fast association. On to B1, for which the “EC50-#1 (M), HEK-Blue reporter” value in test [1] amounted to 1.43e-10 M. For the same molecule, the “EC50-#2 (M), HEK-Blue reporter” value in test [1] turned out to be 5.44e-11 M. Moreover, the “KD ratio IL-18BP/IL-18Rα” value in test [2] was above 1200. Further, the Kd in test [3] stood at 1.8 nM; in test [5], 2.2 nM; in [6], 1.84 nM; in test [7], 2.24 nM; in [8], 2.2 nM; in test [9], 17 nM. The off-rate constant (koff) in test [4] was 0.00091 s⁻¹. The kon in [4] was 495000 M⁻¹ s⁻¹. In addition, in [10], the “IL-18 BP:Rα Dissociation Constant Ratio” value was above 9.32e+06. In addition, the “Dissociation Constant Ratio normalized to WT IL-18” value in test [11] was above 17000.

B2: SEQ ID NO: 91 (second generation human DR-IL-18 variant 6-29) (ligand)
chain: B1 chain with L56R, D105N, S110G
notes: as for B1
As for B2, the koff in [4] came to 0.00119 s⁻¹. Also, the kon in test [4] was 575000 M⁻¹ s⁻¹. For the same molecule, in test [12], the “IL-18 BP:Rα Dissociation Constant Ratio” value was above 7.59e+06. Also, the Kd in [6] worked out at 2.07 nM; in [7] it was 2.65 nM; in [13], 2.7 nM; in [8], 2.7 nM; in test [14] it was 2.1 nM; in [9], 37 nM.

These data come from US20230277625A1 (SIMCHA IL 18, published 2023).
